From the supplement of paper PMC9170038 come the findings set out here.

The data set deals with MS2 coat protein. In words: apparent KD of MS2 coat protein; designed switch direction (-1 OFF switch, 1 ON switch): -1; higher = weaker reporter binding. In a few lines: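 Designed RNA switches sharing common flanks were transcribed on Illumina chips by stalled E. coli RNA polymerase. They were titrated with SNAP-549-labelled MS2 coat protein, from 0.7 or 1.5 nM doubling to 3 µM, in Tris-HCl pH 7.5 buffer with KCl, MgCl2, BSA, DTT, tRNA and Tween-20. Titrations ran without input, with 200 uM small-molecule ligand, or with an oligonucleotide input. The apparent KD of each design is the median over its clusters, after curve-fitting of normalised cluster fluorescence.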

Setting [1] is: Eterna round: R95, input ligand: FMN 200 uM.
The mark [2] stands for this setting: Eterna round: R95, input ligand: microRNA oligo, concentration not stated.
The mark [3] stands for this setting: Eterna round: R95, input ligand: none.
The mark [4] stands for this setting: input ligand: microRNA oligo, concentration not stated.

As for “AGUAACUAUCACGAAAGUGAUAGUUACAAUAGCAAGUGAACAUGAGGAUCACCCAUGUCCUCGUUUGCUCGUCUUAU [Sensor 3 - 21] (puzzle: Sensor v3, turn-off variant 2)”, the “apparent KD of MS2 coat protein” value runs as follows: under setting [1], 134 nM; under setting [2], 418 nM; under setting [3], 136 nM.
Consider “AGUAACUAUCACGAAAGUGAUAGUUACACAAGCAGUGAUACAUGAGGAUCACCCAUGUCCUCAUUUGCUCGUCUUAU [Sensor 3 - 28] (Eterna round: R96, puzzle: Sensor v3, turn-off variant 2)”, for which the “apparent KD of MS2 coat protein” value runs as follows: (input ligand: FMN 200 uM) 87.4 nM; under setting [4], 472 nM; (input ligand: none) 91.9 nM.
As to “AGUAACUAUCACGAAAGUGAUAGUUACACAAGCAGUGAUACAUGAGGAUCACCCAUGUCCUCAUUUGCUCGUCUUAU [Sensor 3 - 28] (puzzle: Sensor v3, turn-off variant 2)”, the “apparent KD of MS2 coat protein” value under setting [1] was determined as 83.6 nM, the “apparent KD of MS2 coat protein” value under setting [2] was found to be 698 nM and the “apparent KD of MS2 coat protein” value under setting [3] was determined as 91 nM.
For the sequence “AGUAAGCUAGGAUAUGCUUUGGGAAAGCAUUCCUUCGAUAAACUUGAGGAUCACCCAAGUAGAAGGAGCUUACU [jl-ex2.4.51 ViennaUCT mod] (Eterna round: R97, puzzle: Exclusion 2)”, the “apparent KD of MS2 coat protein” value is, setting by setting: (input ligand: FMN 200 uM) 22.9 nM; (input ligand: none) 12 nM.
As for “AGUAAUGUAUAAGGAUAUCUCGCAAAUAAAGGCAGAGAAGGUAUACCCACUUGAGGAUCACCCAAGUCUCGUGUGCCUGGUGGA [Mutated MS2 EX1.30] (Eterna round: R96, puzzle: Exclusion NG 1)”, the “apparent KD of MS2 coat protein” value (input ligand: FMN 200 uM) was found to be 23 nM, the “apparent KD of MS2 coat protein” value under setting [4] turned out to be 20.1 nM and the “apparent KD of MS2 coat protein” value (input ligand: none) was 25.1 nM.
On to “AGUACUAACACGAAAGUGUUAGUACAAUAAGCUUGUGACACAUGAGGAUCACCCAUGUCCUCAUAAGCUCGUCUUAU [salish99_TOv2_r3_046] (puzzle: Sensor v3, turn-off variant 2)”, for which the “apparent KD of MS2 coat protein” value under setting [1] was 23.9 nM, the “apparent KD of MS2 coat protein” value under setting [2] is 656 nM and the “apparent KD of MS2 coat protein” value under setting [3] was found to be 25.6 nM.
For “AGUACUAACACGAAAGUGUUAGUACUAUAAGCUUGUGUUACAUGAGGAUCACCCAUGUCCUCAUAAGCUCGUCUUGU [Mat - Sensor v3 - Turn-off var 2 - D104] (puzzle: Sensor v3, turn-off variant 2)” the same measures were 46.4 nM, 48.7 nM and 54.4 nM.
For “AGUACUAACACGAAGGUGUUAGUACAAUAAGCUUGUGAAACAUGAGGAUCACCCAUGUCCUCAUAAGCUCGUCUUAU [salish99_TOv2_r3_033] (puzzle: Sensor v3, turn-off variant 2)” the same measures were 17.5 nM, 702 nM and 17.6 nM.
Take “AGUACUAACACGAGAGUGUUAGUACAAUAAGCUUGUGGAACAUGAGGAUCACCCAUGUCCUCAUAAGCUCGUCUUAU [Mat - Sensor v3 - Turn-off var 2 - D99] (puzzle: Sensor v3, turn-off variant 2)”: the “apparent KD of MS2 coat protein” value is, setting by setting: under setting [1], 15.2 nM; under setting [2], 70.3 nM; under setting [3], 13.4 nM.
For “AGUACUAACACGGUAGUGUUAGUACAAUAAGCUUGUGAAACAUGAGGAUCACCCAUGUCCUCAUAAGCUCGUCUUAU [salish99_TOv2_r3_057] (puzzle: Sensor v3, turn-off variant 2)” the same measures were 17.6 nM, 370 nM and 15.3 nM.
Turning to “AGUACUAACACGUAUGUGUUAGUACAAUAAGCUUGUGAAACAUGAGGAUCACCCAUGUCCUCAUAAGCUCGUCUUAU [salish99_TOv2_r3_066] (puzzle: Sensor v3, turn-off variant 2)”, the “apparent KD of MS2 coat protein” value runs as follows: under setting [1], 18.1 nM; under setting [2], 764 nM; under setting [3], 15 nM.
Turning to “AGUACUAACACGUCUGUGUUAGUACAAUAAGCUUGUGAAACAUGAGGAUCACCCAUGUCCUCAUAAGCUCGUCUUAU [salish99_TOv2_r3_079] (puzzle: Sensor v3, turn-off variant 2)”, the “apparent KD of MS2 coat protein” value is 17.2 nM under setting [1], 749 nM under setting [2] and 16.1 nM under setting [3].
For “AGUACUUUCACGAAAGUGAAAGUACAAUAAGCUUGUGGAACAUGAGGAUCACCCAUGUCCUCAUAAGCUCGUCUUAU [Mat - Sensor v3 - Turn-off var 2 - D32] (puzzle: Sensor v3, turn-off variant 2)” the same measures were 17.3 nM, 72.5 nM and 15.5 nM.
On to “AGUAGAUCUACGCUUGCGUGGAUCUGCAAAGCAGGUGUUACAUGAGGAUCACCCAUGUCCUCAUUUGCUCGUCUUAG [JL turnoff v2 99.08] (puzzle: Sensor v3, turn-off variant 2)”, for which the “apparent KD of MS2 coat protein” value is, setting by setting: under setting [1], 71.8 nM; under setting [2], 563 nM; under setting [3], 65.1 nM.
As for “AGUAGAUCUACGCUUGCGUGGAUCUGCAAUGCAAGUGUUACAUGAGGAUCACCCAUGUCCUCAUUUGCUCGUCUUAU [JL turnoff v2 99.04] (puzzle: Sensor v3, turn-off variant 2)”, the “apparent KD of MS2 coat protein” value under setting [1] came to 42.2 nM, the “apparent KD of MS2 coat protein” value under setting [2] is 108 nM and the “apparent KD of MS2 coat protein” value under setting [3] turned out to be 40.9 nM.
In the case of “AGUAGAUCUACGCUUGCGUGGAUCUGCAAUGUAGGUGUUACAUGAGGAUCACCCAUGUCCUCAUUUGCUCGUCUUAG [JL turnoff v2 99.10] (puzzle: Sensor v3, turn-off variant 2)”, the “apparent KD of MS2 coat protein” value runs as follows: under setting [1], 259 nM; under setting [2], 810 nM.
For the sequence “AGUAGGUCUACCUUGGUGGAUCUGCAUUAUGCAAGUGAUACAUGAGGAUCACCCAUGUCCUCAUUUGCUCGUCUUAU [JL turnoff v2 99.24] (puzzle: Sensor v3, turn-off variant 2)”, the “apparent KD of MS2 coat protein” value by setting is: under setting [1], 17.3 nM; under setting [2], 242 nM; under setting [3], 16.1 nM.
For the sequence “AGUAGGUCUACCUUGGUGGAUCUGCAUUAUGCAAGUGUUACAUGAGGAUCACCCAUGUCCUCAUUUGCUCGUCUUAU [JL turnoff v2 99.23] (puzzle: Sensor v3, turn-off variant 2)”, the “apparent KD of MS2 coat protein” value runs as follows: under setting [1], 37.1 nM; under setting [2], 130 nM; under setting [3], 36.2 nM.
For “AGUAGUAGUAUCCGAUCCUACAUGAGGAUCACCCAUGUAGCUAGACGUGCACGCGAUGCGCGUCAGACUACCAGAUG [salish99_TOv1_r3_042] (puzzle: Sensor v3, turn-off variant 1)” the same measures were 184 nM, 159 nM and 240 nM.
For “AGUAGUAGUAUCCGAUCCUACAUGAGGAUCACCCAUGUAGCUAGACGUGCGCGCGAUGCUCGUCAGACUACCAGAUG [salish99_TOv1_r3_047] (puzzle: Sensor v3, turn-off variant 1)” the same measures were 159 nM, 198 nM and 276 nM.
